PMC10654211, “GTPBP8 is required for mitoribosomal biogenesis and mitochondrial translation” (Cellular and Molecular Life Sciences: CMLS, 2023)

Substrate: Nc1nc2c(ncn2[C@@H]2O[C@H](COP(=O)(O)OP(=O)(O)OP(=O)(O)O)[C@@H](O)[C@H]2O)c(=O)[nH]1
Experiment: purified protein
Format: biochemical, Homo sapiens
Conditions: 12 μM GTPBP8, 0-3 mM GTP, kit reaction buffer, 25 °C, intrinsic GTPase activity

B1: GTPBP8 (GTP-binding protein 8) (Homo sapiens) (protein)
chain: MAAPGLRLGAGRLFEMPAVLERLSRYNSTSQAFAEVLRLPKQQLRKLLYPLQEVERFLAPYGRQDLHLRIFDPSPEDIARADNIFTATERNRIDYVSSAVRIDHAPDLPRPEVCFIGRSNVGKSSLIKALFSLAPEVEVRVSKKPGHTKKMNFFKVGKHFTVVDMPGYGFRAPEDFVDMVETYLKERRNLKRTFLLVDSVVGIQKTDNIAIEMCEEFALPYVIVLTKIDKSSKGHLLKQVLQIQKFVNMKTQGCFPQLFPVSAVTFSGIHLLRCFIASVTGSLD
notes: His-tagged, purified; full-length human CDS in pENTR221, GTPBP8 cloned into pHAT (and pGAT2); full-length 284 residues
  Km: 200 ± 40 µM
  kcat: 0.000132 ± 5.5e-05 s⁻¹
